Laboratory results published in US20240041978A1, “LA PROTEIN AS A NOVEL REGULATOR OF OSTEOCLASTOGENESIS” (The U.S.A., as Represented by the Secretary, Department of …, priority 2021, published 2024).
Positions count from the first letter of the chain named. Names may count otherwise.

T1: La protein (Lupus autoantigen), native, in lysates of fusing human osteoclasts (human, UniProt P05455 1-408, limits assumed)
T1 construct: Endogenous La from monocyte-derived human osteoclasts 3 days post-RANKL; also called native La; SSB
T1 sequence: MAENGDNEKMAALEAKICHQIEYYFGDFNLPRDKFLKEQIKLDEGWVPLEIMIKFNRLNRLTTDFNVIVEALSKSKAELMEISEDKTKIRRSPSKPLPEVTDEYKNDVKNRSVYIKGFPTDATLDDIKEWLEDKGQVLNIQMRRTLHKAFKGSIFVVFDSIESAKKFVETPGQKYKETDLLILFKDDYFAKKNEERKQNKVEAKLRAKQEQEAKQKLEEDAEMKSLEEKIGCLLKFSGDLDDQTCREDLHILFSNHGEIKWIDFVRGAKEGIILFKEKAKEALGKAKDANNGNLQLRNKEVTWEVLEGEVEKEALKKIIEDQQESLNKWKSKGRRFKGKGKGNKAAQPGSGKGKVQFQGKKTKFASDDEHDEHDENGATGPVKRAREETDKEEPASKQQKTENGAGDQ

B1: Annexin A1 (Anx A1), native, in fusing human osteoclasts (other, UniProt P04083 2-346, looked up)
chain: AMVSEFLKQAWFIENEEQEYVQTVKSSKGGPGSAVSPYPTFNPSSDVAALHKAIMVKGVDEATIIDILTKRNNAQRQQIKAAYLQETGKPLDETLKKALTGHLEEVVLALLKTPAQFDADELRAAMKGLGTDEDTLIEILASRTNKEIRDINRVYREELKRDLAKDITSDTSGDFRNALLSLAKGDRSEDFGVNEDLADSDARALYEAGERRKGTDVNVFNTILTTRSYPQLRRVFQKYTKYSKHDMNKVLDLELKGDIEKCLTAIVKCATSKPAFFAEKLHQAMKGVGTRHKALIRIMVSRSEIDMNDIKAFYQKMYGISLCQAILDETKGDYEKILVALCGGN
B2: La 1-375: amino acids 1-375 of human La lacking NLS; recombinant protein or overexpressed from FLAG plasmid (protein, listed as Homo sapiens)
chain: MAENGDNEKMAALEAKICHQIEYYFGDFNLPRDKFLKEQIKLDEGWVPLEIMIKFNRLNRLTTDFNVIVEALSKSKAELMEISEDKTKIRRSPSKPLPEVTDEYKNDVKNRSVYIKGFPTDATLDDIKEWLEDKGQVLNIQMRRTLHKAFKGSIFVVFDSIESAKKFVETPGQKYKETDLLILFKDDYFAKKNEERKQNKVEAKLRAKQEQEAKQKLEEDAEMKSLEEKIGCLLKFSGDLDDQTCREDLHILFSNHGEIKWIDFVRGAKEGIILFKEKAKEALGKAKDANNGNLQLRNKEVTWEVLEGEVEKEALKKIIEDQQESLNKWKSKGRRFKGKGKGNKAAQPGSGKGKVQFQGKKTKFASDDEHDEHDE
B3: La 1-375 RNAΔ: La 1-375 with three point mutations impairing La domain RNA binding (protein, UniProt P05455 1-375, looked up, variant Q20A Y24A D33I)
chain: B2 chain with Q20A, Y24A, D33I
B4: D371A,D374A La: uncleavable mutant of FL La, caspase cleavage sites disrupted, overexpressed from plasmid (protein, UniProt P05455 1-408, looked up, variant D371A D374A)
chain: T1 sequence with D371A, D374A
modifications: full-length
notes: uncleavable mutant of FL La, caspase cleavage sites disrupted, overexpressed from plasmid
B5: Annexin A4 (Anx A4), native, in fusing human osteoclasts (other, UniProt P09525 2-319, looked up)
chain: ATKGGTVKAASGFNAMEDAQTLRKAMKGLGTDEDAIISVLAYRNTAQRQEIRTAYKSTIGRDLIDDLKSELSGNFEQVIVGMMTPTVLYDVQELRRAMKGAGTDEGCLIEILASRTPEEIRRISQTYQQQYGRSLEDDIRSDTSFMFQRVLVSLSAGGRDEGNYLDDALVRQDAQDLYEAGEKKWGTDEVKFLTVLCSRNRNHLLHVFDEYKRISQKDIEQSIKSETSGSFEDALLAIVKCMRNKSAYFAEKLYKSMKGLGTDDNTLIRVMVSRAEIDMLDIRAHFKRLYGKSLYSFIKGDTSGDYRKVLLVLCGGDD

Columns and labels:
[1] = target: T1, La protein (Lupus autoantigen), native, …; experiment: co-immunoprecipitation with α-La on magnetic beads from DTSSP-crosslinked osteoclast lysates, immunoblot
[2] = test system: human monocyte-derived osteoclasts; experiment: Osteoclast fusion assay (number of fusion events, fluorescence microscopy); format: cell-based; details: for osteoclast fusion (fusion events in syncytia with 3+ nuclei): overexpression from expression plasmid vs empty plasmid, human osteoclasts; for formation of multinucleated syncytia (osteoclast fusion): recombinant protein ~40 nM added end of day 2 post-RANKL, overnight
Experimental: Osteoclasts: Elutriated monocytes from healthy donors were obtained. Cells were plated at 2.9×10^5 per cm^2 in 35 mm dishes with polymer coverslip bottoms (Ibidi #81156) for imaging or 35 mm or 10 cm dishes for biochemical experiments in complete media [α-MEM supplemented with 10% Fetal Bovine Serum (FBS) and penicillin-streptomycin-L-glutamine (Gibco Invitrogene #12571063; #26140079 and #10378016, respectively)]. Monocytes were differentiated to M2 macrophages in the presence of 100 ng/ml M-CSF for 6 days and then differentiated with 100 ng/ml M-CSF and 100 ng/ml RANKL for 3 days unless indicated otherwise. RAW 264.7 cells (ATCC, Manassas, VA, #TIB-71) were maintained in DMEM supplemented with 10% FBS to a maximum of 8 passages. RAW 264.7 cells were differentiated to osteoclasts in the presence of 100 ng/ml murine RANKL for 5 days. To separate unfused mononucleated and fused, multinucleated RAW 264.7 cells into separate fractions, advantage was taken of the much stronger adherence of multinucleated cells to culture dish plastic. After washing in PBS, mixed RAW cultures (following RANKL differentiation) were left in Ca^2+ and Mg^2+ free PBS for 10 minutes at room temperature. Culture dishes were then tapped on the lab bench and a large portion of unfused, mononucleated RAW cells were released, and these released cells were collected via centrifugation. This process was repeated 2-4 times until dishes were left with a population of primarily fused, multinucleated syncytia. Mononucleated and multinucleated cell fractions were then processed for biochemical or imaging experiments as described below.
Constructs & Recombinant proteins & Transfection: Recombinant La 1-408, 1-375, 1-375 Q20A_Y24A_D33I, 1-187 and 188-375 were amplified with primers designed with overlapping sequences and inserted between NdeI/HindIII in the V78 pET28A E. coli expression vector, adding to each a N-terminal 6×his affinity tag. La 1-408 was expressed as a recombinant protein in E. coli and purified using IMAC columns by SD Biosciences (San Diego, CA). The remaining constructs were transformed into BL2 (DE3) chemically competent E. coli (Thermo Fisher Scientific) and protein expression was induced with IPTG. Cells were lysed with Bugbuster (Sigma), and 6×his-La proteins were affinity purified using HisPur Cobalt Spin columns (Thermo Fisher Scientific), each according to the manufacturer's instructions. Endotoxin contaminates were depleted from affinity purified 6×his-La proteins using Pierce high-capacity endotoxin removal columns (Thermo Fisher Scientific), according to the manufacturer's instructions. Proteins were then sterile filtered, aliquoted and kept at −80 C.
Plasmids were introduced into primary osteoclasts at day 2 of RANKL stimulation via jetPRIME (Polyplus Transfection). FLAG-La 1-408, FLAG-La 1-375 and FLAG-La 1-375 Q20A_Y24A_D33I plasmids were a gift of the Maraia Lab (NICHD). Briefly, SSB (UniProt P05455) was inserted between HindIII and BamHI the pFLAG-CMV2 vector (Sigma). “Uncleavable” La was produced by taking the FLAG-La 1-408 plasmid and making two point mutations at amino acids D371A and D374A, abrogating the caspase cleavage sites at the C-terminal region of the protein (Emory Integrated Genomics Core). siRNA were introduced into primary osteoclasts after 1 day of RANKL stimulation via Lipofectamine RNAiMAX (Thermo Fisher Scientific). Non-targeted (Cat #4390843) and SSB-targeted (Cat #4392420_ID:s13469) siRNA were introduced at a concentration of 5 ng/ml (Silencer Select, Ambion).
Fusion Assays: Osteoclast fusion in the culture systems was evaluated by fluorescence microscopy (Verma et al., J Biol Chem 293, 254-270, doi:10.1074/jbc.M117.809681 (2018)). Briefly, cells were fixed with 4% paraformaldehyde at timepoints of interest, permeabilized with 0.1% TRITON™ X-100 and blocked with 5% FBS. Cells were then stained with phallodin-ALEXAFLURO®488 and Hoechst to label cells' actin cytoskeleton and nuclei, respectively. […]

[3] = test system: RAW 264.7 derived, murine osteoclasts; experiment: Osteoclast fusion assay in RAW 264.7 derived osteoclasts; format: cell-based; details: overexpression from expression plasmid vs empty plasmid
Experimental: Osteoclasts: Elutriated monocytes from healthy donors were obtained. Cells were plated at 2.9×10^5 per cm^2 in 35 mm dishes with polymer coverslip bottoms (Ibidi #81156) for imaging or 35 mm or 10 cm dishes for biochemical experiments in complete media [α-MEM supplemented with 10% Fetal Bovine Serum (FBS) and penicillin-streptomycin-L-glutamine (Gibco Invitrogene #12571063; #26140079 and #10378016, respectively)]. Monocytes were differentiated to M2 macrophages in the presence of 100 ng/ml M-CSF for 6 days and then differentiated with 100 ng/ml M-CSF and 100 ng/ml RANKL for 3 days unless indicated otherwise. RAW 264.7 cells (ATCC, Manassas, VA, #TIB-71) were maintained in DMEM supplemented with 10% FBS to a maximum of 8 passages. […]
Fusion Assays: Osteoclast fusion in the culture systems was evaluated by fluorescence microscopy (Verma et al., J Biol Chem 293, 254-270, doi:10.1074/jbc.M117.809681 (2018)). […] Osteoclast fusion efficiency was evaluated as the number of fusion events between cells in these images, as described previously. Since regardless of the sequence of fusion events, the number of cell-to-cell fusion events required to generate syncytium with N nuclei is always equal to N−1, the fusion number index was calculated as Σ(Ni−1)=Ntotal−Nsyn, where Ni=the number of nuclei in individual syncytia and Nsyn=the total number of syncytia. […]

[4] = test system: human, monocyte-derived osteoclasts; experiment: Bone resorption assay (fluoresceinamine-labeled chondroitin sulfate on calcium phosphate-coated plates); format: cell-based; details: for bone resorption: overexpression, normalized to empty plasmid
Experimental: There is a relationship between osteoclast fusion and bone resorption (Makris and Saffar, Arch Oral Biol 27, 965-969, doi:10.1016/0003-9969(82)90104-2 (1982); Piper et al., Anat Embryol (Berl) 186, 291-299, doi:10.1007/BF00185977 (1992); Moller et al., Int J Mol Sci 21, doi:10.3390/ijms21176368 (2020)). It was hypothesized that by regulating osteoclast size, La also regulates bone resorption. This hypothesis was evaluated by differentiating osteoclasts on fluoresceinated calcium phosphate, a biomimetic of bone, and assessed osteoclast-dependent bone resorption by the release of fluorescein into the media (FIG. 5A). […] Overexpression of La 1-375 promoted bone resorption, while the uncleavable La mutant, D371,374A, had no effect (FIG. 5B).
Bone Resorption: Bone resorption was evaluated using bone resorption assay kits from Cosmo Bio USA according to the manufacturer's instructions. Briefly, fluoresceinamine-labeled chondroitin sulfate was used to label 24-well, calcium phosphate-coated plates. Human, monocyte-derived osteoclasts were differentiated as described above, using alpha MEM without phenol red. Media were collected at 4-5 days post RANKL addition, and fluorescence intensity within the media was evaluated as recommended by the manufacture.

binding result [1] | Molecule | osteoclast fusion (fusion events in syncytia with 3+ nuclei) [2] | formation of multinucleated syncytia (osteoclast fusion) [2] | osteoclast fusion (fusion events in syncytia with 3+ nuclei) [3] | osteoclast bone resorption ([4]; 40 nM recombinant protein, extracellular addition, vs PBS) | bone resorption [4]
no binding | B1 | – | – | – | – | –
– | B2 | greatly promoted | significantly promoted | greatly promoted | dramatically increased | promoted
– | B3 | – | significantly promoted | promoted formation of multinucleated osteoclasts as robustly as wild type La 1-375 | – | –
– | B4 | no effect | – | – | – | no effect
no binding | B5 | – | – | – | – | –
